Measured values published in PMC549075.

Molecular target: Lamb brain tubulin (lamb)

Substance | ΔOD 350 nm plateau of 15 μM tubulin at 37°C with 8 μM compound | ΔOD ratio (plateau with 8 μM compound divided by plateau of tubulin alone) | ΔOD 350 nm plateau of 15 μM tubulin at 37°C with 8 μM compound (same level as the control: not active in tubulin polymerization)
HIV-1 Tat protein, Eli strain (natural protein) | 1.61 ΔOD 350 nm | 5.27 | –
Tat Eli peptide 38-72 | 1.59 ΔOD 350 nm | 5.2 | –
Tat Eli peptide 73-99 | – | 1 | 0.3 ΔOD 350 nm
Tat Oyi peptide 38-72 (from UniProt P20893 38-72) | 0.78 ΔOD 350 nm | 2.56 | –
Tat Oyi peptide 73-101 (from UniProt P20893 73-101) | – | 1.01 | 0.31 ΔOD 350 nm
